This data set in a line: in vivo. Also on record: species or system mice. The following applies: female, Swiss Albino SCID, mouse, iv, total radioactivity.

Protocol: PC-3 xenografts were established in female Swiss Albino SCID mice, aged 7–8 weeks. After acclimatization, animals were injected subcutaneously into the right shoulder/upper-flank region with freshly harvested PC-3 cells suspended in PBS. Each animal received 5 × 10^6 cells. Tumors were allowed to grow for approximately three weeks until palpable solid tumors were formed. At the time of the experiments, tumor volumes ranged from 200 to 400 mm^3. Animals were then randomly assigned to experimental groups.
Biodistribution studies were performed at 30 min and 1 h post injection (p.i.). […] The injected volume was 100 μL, and the injected activity was approximately 100 kBq per animal. Animals weighed 21 ± 2 g on the day of the experiment. For in vivo blocking studies, a separate group of animals received non-radioactive NOTA-P2-RM26 (50 μg) 5 min prior to the radiotracer injection. Blocking animals were euthanized at 1 h p.i. At the selected time points, animals were euthanized. Blood, tumors, organs, and tissues of interest were collected, weighed, and measured for radioactivity using the gamma counter. The stomach and intestines were measured without content. […] Data were decay-corrected and expressed as a percentage of injected activity per gram of tissue (%IA/g). Urine/bladder and gastrointestinal/fecal content were expressed as a percentage of injected activity (%IA).

As for `CC(C)C[C@H](NC(=O)C[C@H](O)[C@H](CC(C)C)NC(=O)[C@H](Cc1c[nH]cn1)NC(=O)CNC(=O)[C@@H](NC(=O)[C@H](C)NC(=O)[C@H](Cc1c[nH]c2ccccc12)NC(=O)[C@H](CCC(N)=O)NC(=O)[C@@H](Cc1ccccc1)NC(=O)COCCOCCNC(=O)CN1CCN(CC(=O)O)CCN(CC(=O)O)CC1)C(C)C)C(N)=O` [^99mTc2, fac-[^99mTc][Tc(CO)3(NOTA-P2-RM26)], metal not drawn], the tissue uptake at 1 h by setting is: (bone uptake) 0.18 ± 0.07 %ID/g; (pancreatic uptake) 3 ± 0.35 %ID/g.

As usually defined, the tissue uptake is the percentage of the injected dose found per gram of tissue.

The values are drawn from PMC13708078, “Development of a GRPR-Targeted ^99mTc/^188Re Theranostic Pair Based on NOTA-P2-RM26” (Pharmaceutics, 2026).
